According to patent publication US20250320501A1, “PALMITOYLATION OF THE ALTERNATIVE AMINO TERMINUS OF THE BTK-C ISOFORM CONTROLS SUBCELLULAR DISTRIBUTION AND SIGNALING” (The Research Foundation for the State University of New York, priority 2022, published 2025):

System: BTK-A and BTK-C
Assay: Activating phosphorylation of BTK isoforms after stimulation with other ligands
Format: cell-based, human
Conditions: ligand stimulation (not shown)

B1: RANKL: ligand used for stimulation of BTK activation (protein, UniProt O14788 140-317, looked up)
Tumor necrosis factor ligand …: IRAEKAMVDGSWLDLAKRSKLEAQPFAHLTINATDIPSGSHKVSLSSWYHDRGWAKISNMTFSNGKLIVNQDGFYYLYANICFRHHETSGDLATEYLQLMVYVTKTSIKIPSSHTLMKGGSTKYWSGNSEFHFYSINVGGFFKLRSGEEISIEVSNPSLLDPDQDATYFGAFKVRDID
increase of activating phosphorylation levels above unstimulated levels: only modestly
